Ends that are not written are not given here.
B1: Phage-102 (peptide)
peptide: MDWCPRYLWAECFY
B2: Peptide-50 (peptide)
peptide: MDWCPVHLWSVCFA
modifications: cysteine pairing not given here; also: biotinylated, site not given here
notes: Synthetic biotinylated peptide loaded on streptavidin biosensors
B3: Peptide-49 (peptide)
peptide: MHWCPVDLWYLCYN
modifications: cysteine pairing not given here; also: biotinylated, site not given here
notes: as for B2
B4: Phage-90 (peptide)
peptide: MDWCPIDLWHLCFY
B5: Phage-52 (peptide)
peptide: MDWCPINLWDECFS
B6: Phage-32 (peptide)
peptide: MDWCPRDMWSVCFS
B7: Phage-29 (peptide)
peptide: MDWCPRDLWVHCFA
B8: Phage-56 (peptide)
peptide: MHWCPMDQWSNCFN
B9: Phage-41 (peptide)
peptide: MAWCPRDKWSECFS
B10: Phage-95 (peptide)
peptide: MDWCPRFLWSECFN
B11: Phage-100 (peptide)
peptide: MDWCPRYLWTECFN
B12: Peptide-8 (peptide)
peptide: CFAYLWIDSWIRVC
modifications: cysteine pairing not given here; also: biotinylated when captured on plate, site not given here
notes: biotinylated when captured on the plate
B13: Phage-70 (peptide)
peptide: ITWCPSSMWNRCFI
B14: Phage-69 (peptide)
peptide: MDWCPIHMWADCFA
B15: Phage-94 (peptide)
peptide: MDWCPRDLWSLCFY
B16: Phage-89 (peptide)
peptide: MDWCPRALWNVCFN
B17: Phage-62 (peptide)
peptide: MDWCPSYLWNECFF
B18: Phage-24 (peptide)
peptide: MDWCPLYLWNECFN
B19: Phage-83 (peptide)
peptide: MDWCPRFLWDECFN
B20: Peptide-4 (peptide)
peptide: SFCGLFLDLWICEF
modifications: cysteine pairing not given here; also: biotinylated, site not given here
notes: as for B12
B21: Peptide-7 (peptide)
peptide: FCTPREWSFLNFVC
modifications: cysteine pairing not given here; also: biotinylated when captured on plate, site not given here
notes: as for B12
B22: Peptide-5 (peptide)
peptide: DNCYVIWGFEWQCR
modifications: cysteine pairing not given here; also: biotinylated when captured on plate, site not given here
notes: as for B12
B23: Peptide-6 (peptide)
peptide: VNCMRVHRTLTWCV
modifications: cysteine pairing not given here; also: biotinylated when captured on plate, site not given here
notes: as for B12
B24: Phage-39 (peptide)
peptide: MDWCPMHLWHQCFN
B25: Phage-59 (peptide)
peptide: MDWCPRDSWHLCFA
B26: Phage-57 (peptide)
peptide: MDWCPRHRWVDCFY
B27: Phage-22 (peptide)
peptide: MNWCPKDIWYLCFN
B28: Phage-42 (peptide)
peptide: MDWCPRHLWVHCFN
B29: Phage-80 (peptide)
peptide: MDWCPMYLWNECFS
B30: Phage-71 (peptide)
peptide: MDWCPRYLWHECFA
B31: Phage-73 (peptide)
peptide: MDWCPRALWHECFN
B32: Phage-53 (peptide)
peptide: MDWCPMHLWNKCFN
B33: Phage-51 (peptide)
peptide: MDWCPMDLWDYCFN
B34: Phage-61 (peptide)
peptide: MVSCPTTMWNRCFN
B35: Phage-33 (peptide)
peptide: MDWCPRFMWDECFN

The binders below were run against T1, Anti-CD28 scFv (VH-linker 1-VL) (biotinylated (site not stated)) (assay: phage ELISA, scFv wells pre-incubated with soluble CD28 (competitor); background signal 0.063).
T1 construct: biotinylated and captured on neutravidin coated plates in the phage ELISA

B1 was tested, and the “Phage binding ELISA CD28 scFv signal in presence of CD28” value was 0.354.

These binders were tested against T2, Ab-12, anti-PD-L1xCD28 non-masked antibody in Vh format (assay: competition ELISA: peptide titrated against 5 nM Ab-12; binding of Ab-12 to captured biotinylated CD28 antigen is read).
T2 construct: also called PDL1xCD28 non-masked (Vh)

Going from B2 to B3, the IC50 falls from 2340 nM to 170 nM (14-fold). The second is the more potent here.

Each binder was assayed against T1, Anti-CD28 scFv (VH-linker 1-VL) (assay: phage ELISA, captured biotinylated scFv; background signal 0.062).

Going from B4 to B5, the “Phage binding ELISA CD28 scFv signal” value falls from 2.59 to 1.5.

Compared with B6, B7 is lower in “Phage binding ELISA CD28 scFv signal” value: 2.62 for the first, 2.55 for the second.

First: B8
Second: B9
The “Phage binding ELISA CD28 scFv signal” value of the first is lower: 0.515 for the first, 0.853 for the second.

Going from B10 to B11, the “Phage binding ELISA CD28 scFv signal” value falls from 2.57 to 2.56.

These binders were tested against T2, Ab-12, anti-PD-L1xCD28 non-masked … (assay: competition ELISA: peptide titrated against 5 nM Ab-12; binding of Ab-12 to captured biotinylated CD28 antigen is read; table prints 'IC50 nM' but the axis is Log [Peptide, uM]; no fall of the signal).

Work on B12 yielded an IC50 greater than 100 nM.

These binders were tested against T1, Anti-CD28 scFv (VH-linker 1-VL) (assay: phage ELISA, captured biotinylated scFv; background signal 0.065).

Compared with B13, B14 is higher in “Phage binding ELISA CD28 scFv signal” value: 0.379 for the first, 2.46 for the second.

First: B15
Second: B16
The “Phage binding ELISA CD28 scFv signal” value of the first is lower: 2.57 for the first, 2.6 for the second.

Compared with B17, B18 is higher in “Phage binding ELISA CD28 scFv signal” value: 2 for the first, 2.61 for the second.

With B19 the “Phage binding ELISA CD28 scFv signal” value was 2.63.

These binders were tested against T3, anti-CD28 scFv (SEQ ID NO: 9) (assay: competition ELISA: peptide titrated against 2 nM anti-CD28 scFv; binding of the scFv to captured biotinylated CD28 antigen is read; table prints 'IC50 nM' but the axis is Log [Peptide, uM]; no fall of the signal).
T3 construct: also called Anti-CD28 scFv (VH-linker 1-VL)

B20 and B21 cannot be ordered by IC50: greater than 100 nM for the first, greater than 100 nM for the second.

B22 and B12 cannot be ordered by IC50: greater than 100 nM for the first, greater than 100 nM for the second.

B23 gave an IC50 greater than 100 nM.

These binders were tested against T1, Anti-CD28 scFv (VH-linker 1-VL) (assay: phage ELISA, captured biotinylated scFv; background signal 0.073).

First: B24
Second: B25
The “Phage binding ELISA CD28 scFv signal” value of the first is higher: 2.56 for the first, 2.45 for the second.

First: B26
Second: B27
The “Phage binding ELISA CD28 scFv signal” value of the first is lower: 0.478 for the first, 2.62 for the second.

What follows are binders tested against T1, Anti-CD28 scFv (VH-linker 1-VL) (assay: phage ELISA, scFv wells pre-incubated with soluble CD28 (competitor); background signal 0.071).

First: B28
Second: B29
The “Phage binding ELISA CD28 scFv signal in presence of CD28” value of the first is lower: 0.254 for the first, 0.411 for the second.

Compared with B30, B31 is lower in “Phage binding ELISA CD28 scFv signal in presence of CD28” value: 0.429 for the first, 0.401 for the second.

Going from B32 to B33, the “Phage binding ELISA CD28 scFv signal in presence of CD28” value falls from 0.122 to 0.107.

These binders were tested against T1, Anti-CD28 scFv (VH-linker 1-VL) (assay: phage ELISA, scFv wells pre-incubated with soluble CD28 (competitor); background signal 0.065).

Compared with B13, B14 is higher in “Phage binding ELISA CD28 scFv signal in presence of CD28” value: 0.11 for the first, 0.143 for the second.

First: B15
Second: B16
The “Phage binding ELISA CD28 scFv signal in presence of CD28” value of the first is lower: 0.246 for the first, 0.472 for the second.

Compared with B17, B18 is higher in “Phage binding ELISA CD28 scFv signal in presence of CD28” value: 0.133 for the first, 0.247 for the second.

In the case of B19, the “Phage binding ELISA CD28 scFv signal in presence of CD28” value is reported as 0.483.

Each binder was assayed against T1, Anti-CD28 scFv (VH-linker 1-VL) (assay: phage ELISA, scFv wells pre-incubated with soluble CD28 (competitor); background signal 0.062).

Compared with B4, B5 is lower in “Phage binding ELISA CD28 scFv signal in presence of CD28” value: 0.488 for the first, 0.096 for the second.

Going from B6 to B7, the “Phage binding ELISA CD28 scFv signal in presence of CD28” value falls from 0.207 to 0.179.

Compared with B8, B9 is higher in “Phage binding ELISA CD28 scFv signal in presence of CD28” value: 0.084 for the first, 0.147 for the second.

Going from B10 to B11, the “Phage binding ELISA CD28 scFv signal in presence of CD28” value rises from 0.227 to 0.549.

What follows are binders tested against T1, Anti-CD28 scFv (VH-linker 1-VL) (assay: phage ELISA, scFv wells pre-incubated with soluble CD28 (competitor); background signal 0.073).

Compared with B24, B25 is lower in “Phage binding ELISA CD28 scFv signal in presence of CD28” value: 0.299 for the first, 0.147 for the second.

Going from B26 to B27, the “Phage binding ELISA CD28 scFv signal in presence of CD28” value rises from 0.11 to 0.168.

What follows are binders tested against T1, Anti-CD28 scFv (VH-linker 1-VL) (assay: phage ELISA, scFv wells pre-incubated with soluble CD28 (competitor); background signal 0.079).

Going from B34 to B35, the “Phage binding ELISA CD28 scFv signal in presence of CD28” value rises from 0.072 to 0.256.

What follows are binders tested against T1, Anti-CD28 scFv (VH-linker 1-VL) (assay: phage ELISA, captured biotinylated scFv; background signal 0.079).

Compared with B34, B35 is higher in “Phage binding ELISA CD28 scFv signal” value: 1.33 for the first, 2.68 for the second.

The binders below were run against T1, Anti-CD28 scFv (VH-linker 1-VL) (assay: phage ELISA, captured biotinylated scFv; background signal 0.071).

First: B28
Second: B30
The “Phage binding ELISA CD28 scFv signal” value of the first is lower: 2.5 for the first, 2.63 for the second.

Going from B31 to B32, the “Phage binding ELISA CD28 scFv signal” value falls from 2.69 to 1.04.

B33 was tested, and the “Phage binding ELISA CD28 scFv signal” value was 1.64.
